The record followed here is patent US20100061996A1.

Common to all, as to experiment: cell-based or functional assay
In assay [1] the target is endogenous full-length hepsin on the surface of LnCaP-17 cells (human) (UniProt P05981).
In assay [2] the target is full-length hepsin on the surface of LnCaP-34 cells (transfected full-length hepsin with C-terminal Flag tag plus endogenous hepsin) (human) (UniProt P05981).
In assay [3] the target is pro-uPA (pro-urokinase-type plasminogen activator, single-chain zymogen form of uPA) (UniProt P00749).

full-length hepsin on the surface of LnCaP-34 cells (transfected full-length hepsin with C-terminal Flag tag plus endogenous hepsin) (human), sequence (P05981 whole entry): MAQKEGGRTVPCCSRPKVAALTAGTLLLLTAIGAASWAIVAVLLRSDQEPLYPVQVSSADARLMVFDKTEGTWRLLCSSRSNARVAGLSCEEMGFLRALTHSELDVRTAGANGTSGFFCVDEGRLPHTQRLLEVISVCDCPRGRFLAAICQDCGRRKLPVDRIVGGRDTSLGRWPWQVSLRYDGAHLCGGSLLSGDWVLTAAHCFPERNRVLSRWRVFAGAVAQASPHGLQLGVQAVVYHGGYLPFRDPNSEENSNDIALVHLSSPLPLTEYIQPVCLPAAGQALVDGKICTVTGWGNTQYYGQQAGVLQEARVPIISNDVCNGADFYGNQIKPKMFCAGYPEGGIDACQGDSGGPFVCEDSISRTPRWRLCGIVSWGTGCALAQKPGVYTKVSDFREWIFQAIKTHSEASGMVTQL
endogenous full-length hepsin on the surface of LnCaP-17 cells (human), sequence (P05981 whole entry): as above

Consider “KD1, Kunitz domain-1 derived from HAI-1B (from UniProt O43278 246-303)”, for which the Rate of pro-uPA activation per 10^6 cells, LnCaP-17, with 1 uM KD1 in assay [1] came to 0.2 nM uPA hr^-1. The Rate of pro-uPA activation per 10^6 cells, LnCaP-34, with 1 uM KD1 in assay [2] came to 0.2 nM uPA hr^-1. “full-length hepsin on the surface of LnCaP-34 cells (transfected full-length hepsin with C-terminal Flag tag plus endogenous hepsin) (from UniProt P05981 1-417) (enzyme)” yielded a Rate of pro-uPA activation per 10^6 cells, LnCaP-34, control in assay [3] of 6.6 nM uPA hr^-1. “endogenous full-length hepsin on the surface of LnCaP-17 cells (from UniProt P05981 1-417) (enzyme)”: in assay [3], the Rate of pro-uPA activation per 10^6 cells, LnCaP-17, control was found to be 2.4 nM uPA hr^-1.
